Where a chain is given by its changes, count along the chain named.
B1: BIIB-9-1280 (antibody, V domains shown)
VH: QVQLVQSGAEVKKPGASVKVSCKASGYTFTSYYMVWVRQAPGQGLEWMGIINPSGGSTSYAQKFQGRVTMTRDTSTSTVYMELSSLRSEDTAVYYCARGPWYSYYYMDVWGKGTTVTVSS
VL: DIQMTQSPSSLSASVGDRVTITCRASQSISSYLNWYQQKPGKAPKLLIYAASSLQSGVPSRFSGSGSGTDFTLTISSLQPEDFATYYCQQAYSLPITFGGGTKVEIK
notes: IgG
B2: BIIB-9-1266 (antibody, V domains shown)
VH: B1 VH with V35H, G99D, P100H, W101G, Y102W, S103A, Y104I, Y106G, K112Q
VL: EIVMTQSPATLSLSPGERATLSCRASQSVSSYLAWYQQKPGQAPRLLIYDSSNRATGIPARFSGSGSGTDFTLTISSLEPEDFAVYYCQQRLNFPFTFGGGTKVEIK
notes: IgG
B3: BIIB-9-439 (antibody, V domains shown)
VH: B1 VH with V35H, S59T, G99E, P100A, W101T, Y102E
VL: B2 VL with L92D, F94W
notes: IgG
B4: BIIB-9-408 (antibody, V domains shown)
VH: QVQLVQSGAEVKKPGASVKVSCKASGYTFTSYYMHWVRQAPGQGLEWMGIINPSGGSTTYAQKFQGRVTMTRDTSTSTVYMELSSLRSEDTAVYYCARDPGAYDDWSGYDDYGMDVWGQGTTVTVSS
VL: EIVLTQSPATLSLSPGERATLSCRASQSVSSYLAWYQQKPGQAPRLLIYDASNRATGIPARFSGSGSGTDFTLTISSLEPEDFAVYYCQQAFVWPPITFGGGTKVEIK
notes: IgG
B5: BIIB-9-416 (antibody, V domains shown)
VH: QVQLVQSGAEVKKPGASVKVSCKASGYTFTSYYMHWVRQAPGQGLEWMGIINPSGGSTSYAQKFQGRVTMTRDTSTSTVYMELSSLRSEDTAVYYCAREGPMLDYPTYSNWFDPWGQGTLVTVS
VL: B2 VL with L92V, N93V, F94W, F96P
notes: IgG
B6: BIIB-9-629 (antibody, V domains shown)
VH: QVQLVQSGAEVKKPGASVKVSCKASGYTFTSYYMHWVRQAPGQGLEWMGVINPSGGSTSYAQKFQGRVTMTRDTSTSTVYMELSSLRSEDTAVYYCARDPSQDYATGTGWFDPWGQGTLVTVSS
VL: DIQLTQSPSSLSASVGDRVTITCQASQDISNYLNWYQQKPGKAPKLLIYDASNLETGVPSRFSGSGSGTDFTFTISSLQPEDIATYYCQQLDSLPPTFGGGTKVEIK
notes: IgG
B7: BIIB-9-885 (antibody, V domains shown)
VH: QVQLVQSGAEVKKPGASVKVSCKASGYTFTSYYMHWVRQAPGQGLEWMGIINPSGGSTSYAQKFQGRVTMTRDTSTSTVYMELSSLRSEDTAVYYCAREGPMLDYPTYSNWFDPWGQGTLVTVSS
VL: B2 VL with M4L, S51A, N53K, L92V, N93I, F94W, F96P
notes: IgG
B8: BIIB-9-607 (antibody, V domains shown)
VH: QLQLQESGPGLVKPSETLSLTCTVSGGSISSSSYYWGWIRQPPGKGLEWIGSISYSGSTYYNPSLKSRVTISVDTSKNQFSLKLSSVTAADTAVYYCARDRGYSYEDFDLWGRGTLVTVS
VL: DIQMTQSPSTLSASVGDRVTITCRASQSISSWLAWYQQKPGKAPKLLIYKASSLESGVPSRFSGSGSGTEFTLTISSLQPDDFATYYCQQAGRYPLTFGGGTKVEIK
notes: IgG
B9: BIIB-9-471 (antibody, V domains shown)
VH: QVQLQESGPGLVKPSQTLSLTCTVSGGSISSGGYYWSWIRQHPGKGLEWIGYIYYSGSTYYNPSLKSRVTISVDTSKNQFSLKLSSVTAADTAVYYCARSGVSGSGSDNWFDPWGQGTTVTVSS
VL: B2 VL with M4L, S31R, S51A, R91D, L92Y, F94Y
notes: IgG
B10: BIIB-9-472 (antibody, V domains shown)
VH: EVQLVESGGGLVKPGGSLRLSCAASGFTFSSYSMNWVRQAPGKGLEWVSSISSSSSYIYYADSVKGRFTISRDNAKNSLYLQMNSLRAEDTAVYYCARGGRYSGSWSWNIWGQGTMVTVSS
VL: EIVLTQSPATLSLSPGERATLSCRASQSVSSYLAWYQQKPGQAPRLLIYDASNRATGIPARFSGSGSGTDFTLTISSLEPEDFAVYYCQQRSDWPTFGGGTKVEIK
notes: IgG
B11: BIIB-9-446 (antibody, V domains shown)
VH: QVQLVQSGAEVKKPGSSVKVSCKASGGTFSSYAISWVRQAPGQGLEWMGGIIPIFGTASYAQKFQGRVTITADESTSTAYMELSSLRSEDTAVYYCARGLEVGYYGYFDYWGQGTLVTVSS
VL: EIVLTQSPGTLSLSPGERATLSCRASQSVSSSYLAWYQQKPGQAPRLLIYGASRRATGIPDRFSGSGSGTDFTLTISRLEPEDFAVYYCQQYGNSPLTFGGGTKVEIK
notes: IgG
B12: BIIB-9-568 (antibody, V domains shown)
VH: QLQLQESGPGLVKPSETLSLTCTVSGGSISSSSYYWGWIRQPPGKGLEWIGSIYYSGSTYYNPSLKSRVTISVDTSKNQFSLKLSSVTAADTAVYYCARDLGYAATYFDLWGRGTLVTVSS
VL: DIQMTQSPSSLSASVGDRVTITCQASQDISNYLNWYQQKPGKAPKLLIYDASNLETGVPSRFSGSGSGTDFTFTISSLQPEDIATYYCQQYDDYLTFGGGTKVEIK
notes: IgG
B13: BIIB-9-615 (antibody, V domains shown)
VH: QVQLVQSGAEVKKPGASVKVSCKASGYTFTSYYMHWVRQAPGQGLEWMGIINPSGGSTSYAQKFQGRVTMTRDTSTSTVYMELSSLRSEDTAVYYCARDSPSSSSYWSLDLWGRGTLVTVSS
VL: B2 VL with M4L, S51A, R91S, L92C, N93H, F94W, F96W
notes: IgG
B14: BIIB-9-628 (antibody, V domains shown)
VH: QVQLVQSGAEVKKPGASVKVSCKASGYTFTSYYMHWVRQAPGQGLEWMGIINPSGGSTSYAQKFQGRVTMTRDTSTSTVYMELSSLRSEDTAVYYCAREPIAYGATLDLWGRGTLVTVSS
VL: EIVLTQSPGTLSLSPGERATLSCRASQSVSSDYLAWYQQKPGQAPRLLIYGASSRATGIPDRFSGSGSGTDFTLTISRLEPEDFAVYYCQQYVVFPFTFGGGTKVEIK
notes: IgG
B15: BIIB-9-882 (antibody, V domains shown)
VH: QVQLVQSGAEVKKPGASVKVSCKASGYTFTSYYMHWVRQAPGQGLEWMGIINPSGGSTSYAQKFQGRVTMTRDTSTSTVYMELSSLRSEDTAVYYCARGPTDSSGYLDMDVWGKGTTVTVSS
VL: EIVMTQSPATLSVSPGERATLSCRASQSVSSNLAWYQQKPGQAPRLLIFGASTRATGIPARFSGSGSGTEFTLTISSLQSEDFAVYYCQQHDNFPPTFGGGTKVEIK
notes: IgG
B16: BIIB-9-888 (antibody, V domains shown)
VH: B15 VH
VL: B15 VL with F49Y, S80P, H91A, D92F, F94W
notes: IgG
B17: BIIB-9-884 (antibody, V domains shown)
VH: QLQLQESGPGLVKPSETLSLTCTVSGGSISSSDYYWGWIRQPPGKGLEWIGSIYYSGSTYYNPSLKSRVTISVDTSKNQFSLKLSSVTAADTAVYYCARSPRHKVRGPNWFDPWGQGTLVTVSS
VL: B14 VL with D32S, V93H, V94L, F95L, F97P
notes: IgG
B18: BIIB-9-886 (antibody, V domains shown)
VH: QVQLVQSGAEVKKPGASVKVSCKASGYTFTSYYMHWVRQAPGQGLEWMGIINPSGGSTSYAQKFQGRVTMTRDTSTSTVYMELSSLRSEDTAVYYCARDPAHSYLDAFDIWGQGTMVTVSS
VL: DIQMTQSPSSVSASVGDRVTITCRASQGISSWLAWYQQKPGKAPKLLIYAASSLQSGVPSRFSGSGSGTDFTLTISSLQPEDFATYYCQQASSFPFTFGGGTKVEIK
notes: IgG
B19: BIIB-9-887 (antibody, V domains shown)
VH: QVQLVQSGAEVKKPGASVKVSCKASGYTFTSYYMVWVRQAPGQGLEWMGIINPSGGSTSYAQKFQGRVTMTRDTSTSTVYMELSSLRSEDTAVYYCARDAEAHWIPGMDVWGQGTTVTVSS
VL: B18 VL
notes: IgG
B20: BIIB-9-451 (antibody, V domains shown)
VH: QLQLQESGPGLVKPSETLSLTCTVSGGSISSSSYYWGWIRQPPGKGLEWIGSISYSGSTYYNPSLKSRVTISVDTSKNQFSLKLSSVTAADTAVYYCARDSGGYYYQGFDYWGQGTLVTVSS
VL: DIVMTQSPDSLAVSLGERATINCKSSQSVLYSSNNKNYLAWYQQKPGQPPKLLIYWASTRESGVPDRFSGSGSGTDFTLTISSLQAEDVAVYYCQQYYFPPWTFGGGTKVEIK
notes: IgG
B21: BIIB-9-473 (antibody, V domains shown)
VH: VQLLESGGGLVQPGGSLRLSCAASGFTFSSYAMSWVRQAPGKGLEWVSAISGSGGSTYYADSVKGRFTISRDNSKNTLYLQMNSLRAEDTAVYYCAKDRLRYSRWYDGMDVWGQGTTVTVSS
VL: B2 VL with M4L, S51A, L92S, N93F, F94L, F96Y
notes: IgG
B22: BIIB-9-565 (antibody, V domains shown)
VH: QLQLQESGPGLVKPSETLSLTCTVSGGSISSSSYYWGWIRQPPGKGLEWIGSIYYSGSTYYNPSLKSRVTISVDTSKNQFSLKLSSVTAADTAVYYCARAGMYSSYANWFDPWGQGTLVTVSS
VL: B2 VL with M4L, S51A, R91D, L92S, F94L
notes: IgG
B23: BIIB-9-573 (antibody, V domains shown)
VH: QLQLQESGPGLVKPSETLSLTCTVSGGSISSSSYYWGWIRQPPGKGLEWIGSIYYSGSTYYNPSLKSRVTISVDTSKNQFSLKLSSVTAADTAVYYCARESKTKGYLDLWGRGTLVTVSS
VL: B14 VL with D32S, Y33F, Y92S, V93H, V94S, F95P, F97Y
notes: IgG

Biological target: T1, free FIXa (activated Factor IX) (human, UniProt P00740 47-191; P00740 227-461)
T1 construct: BLI antigen bought from Haematologic Technologies (HCIXA-0050); also called factor IXa
Test: BLI; class meaning: paragraph 914

Binding result, binds:
B1
B2
B3
B4
B5
B6
B7
B8
B9
B10
B11
B12
B13
B14
B15
B16
B17
B18
B19

Biological target: T2, FIXa-SM (FIXa+EGR-CMK) (human, UniProt P00740 47-191; P00740 227-461, EGR-CMK (L-Glu-Gly-Arg chloromethyl ketone) covalently bound to the active site)
T2 construct: BLI antigen bought from Haematologic Technologies (HCIXA-EGR); also called FIXa with substrate mimic
Test: BLI; class meaning: paragraph 914

Binding result, binds:
B1
B2
B3
B8
B9
B10
B11
B12
B13
B14
B15
B16
B17
B18
B19
B20
B21
B22
B23

Source: patent US20230192896A1 (BIOVERATIV THERAPEUTICS, published 2023)
